Assay results from US20110166062A1 (INDIANA UNIVERSITY RESEARCH AND TECHNOLOGY, published 2011).
Bridges are numbered along the chain shown (N, C = ends). Where no end group is shown, it is not given here. [ ]: non-standard residue; d: D form. Aib = CC(C)(N)C(=O)O

T1: GIP receptor (UniProt P48546 22-466)
T1 sequence (looked up): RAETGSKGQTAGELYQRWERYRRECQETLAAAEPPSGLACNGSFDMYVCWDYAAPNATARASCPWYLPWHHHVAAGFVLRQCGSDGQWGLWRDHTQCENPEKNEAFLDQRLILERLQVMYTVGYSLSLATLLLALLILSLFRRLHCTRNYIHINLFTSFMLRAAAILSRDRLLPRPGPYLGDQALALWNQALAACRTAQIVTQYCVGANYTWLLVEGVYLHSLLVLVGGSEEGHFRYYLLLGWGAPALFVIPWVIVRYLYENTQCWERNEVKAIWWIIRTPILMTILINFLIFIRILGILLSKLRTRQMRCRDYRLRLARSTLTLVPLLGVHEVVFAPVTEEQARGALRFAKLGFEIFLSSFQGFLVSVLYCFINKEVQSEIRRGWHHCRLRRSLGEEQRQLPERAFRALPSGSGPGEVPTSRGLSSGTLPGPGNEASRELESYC

B1: mt-167 (peptide)
peptide: YSQGTFTSDYSIYLDEEAAKEFVNWLLAGGPSSGAPPPS-NH2
modifications: lactam 17-20; N-terminus assumed
SMILES: CC[C@H](C)[C@H](NC(=O)[C@H](CO)NC(=O)[C@H](Cc1ccc(O)cc1)NC(=O)[C@H](CC(=O)O)NC(=O)[C@H](CO)NC(=O)[C@@H](NC(=O)[C@H](Cc1ccccc1)NC(=O)[C@@H](NC(=O)CNC(=O)[C@H](CCC(N)=O)NC(=O)[C@H](CO)NC(=O)[C@@H](N)Cc1ccc(O)cc1)[C@@H](C)O)[C@@H](C)O)C(=O)N[C@@H](Cc1ccc(O)cc1)C(=O)N[C@@H](CC(C)C)C(=O)N[C@@H](CC(=O)O)C(=O)N[C@@H](CCC(=O)O)C(=O)N[C@H]1CCC(=O)NCCCC[C@@H](C(=O)N[C@@H](CCC(=O)O)C(=O)N[C@@H](Cc2ccccc2)C(=O)N[C@H](C(=O)N[C@@H](CC(N)=O)C(=O)N[C@@H](Cc2c[nH]c3ccccc23)C(=O)N[C@@H](CC(C)C)C(=O)N[C@@H](CC(C)C)C(=O)N[C@@H](C)C(=O)NCC(=O)NCC(=O)N2CCC[C@H]2C(=O)N[C@@H](CO)C(=O)N[C@@H](CO)C(=O)NCC(=O)N[C@@H](C)C(=O)N2CCC[C@H]2C(=O)N2CCC[C@H]2C(=O)N2CCC[C@H]2C(=O)N[C@@H](CO)C(N)=O)C(C)C)NC(=O)[C@H](C)NC(=O)[C@H](C)NC1=O
B2: mt-168 (peptide)
peptide: YSQGTFTSDYSIYLDEQKAKEFVNWLLAGGPSSGAPPPS-NH2
modifications: lactam 18-21; N-terminus assumed
SMILES: CC[C@H](C)[C@H](NC(=O)[C@H](CO)NC(=O)[C@H](Cc1ccc(O)cc1)NC(=O)[C@H](CC(=O)O)NC(=O)[C@H](CO)NC(=O)[C@@H](NC(=O)[C@H](Cc1ccccc1)NC(=O)[C@@H](NC(=O)CNC(=O)[C@H](CCC(N)=O)NC(=O)[C@H](CO)NC(=O)[C@@H](N)Cc1ccc(O)cc1)[C@@H](C)O)[C@@H](C)O)C(=O)N[C@@H](Cc1ccc(O)cc1)C(=O)N[C@@H](CC(C)C)C(=O)N[C@@H](CC(=O)O)C(=O)N[C@@H](CCC(=O)O)C(=O)N[C@@H](CCC(N)=O)C(=O)N[C@H]1CCCCNC(=O)CC[C@@H](C(=O)N[C@@H](Cc2ccccc2)C(=O)N[C@H](C(=O)N[C@@H](CC(N)=O)C(=O)N[C@@H](Cc2c[nH]c3ccccc23)C(=O)N[C@@H](CC(C)C)C(=O)N[C@@H](CC(C)C)C(=O)N[C@@H](C)C(=O)NCC(=O)NCC(=O)N2CCC[C@H]2C(=O)N[C@@H](CO)C(=O)N[C@@H](CO)C(=O)NCC(=O)N[C@@H](C)C(=O)N2CCC[C@H]2C(=O)N2CCC[C@H]2C(=O)N2CCC[C@H]2C(=O)N[C@@H](CO)C(N)=O)C(C)C)NC(=O)[C@H](CCCCN)NC(=O)[C@H](C)NC1=O
B3: mt-169 (peptide)
peptide: Y[Aib]QGTFTSDYSIYLDEQAAKEFVCWLLAG-NH2
modifications: lactam 16-20; N-terminus assumed
SMILES: CC[C@H](C)[C@H](NC(=O)[C@H](CO)NC(=O)[C@H](Cc1ccc(O)cc1)NC(=O)[C@H](CC(=O)O)NC(=O)[C@H](CO)NC(=O)[C@@H](NC(=O)[C@H](Cc1ccccc1)NC(=O)[C@@H](NC(=O)CNC(=O)[C@H](CCC(N)=O)NC(=O)C(C)(C)NC(=O)[C@@H](N)Cc1ccc(O)cc1)[C@@H](C)O)[C@@H](C)O)C(=O)N[C@@H](Cc1ccc(O)cc1)C(=O)N[C@@H](CC(C)C)C(=O)N[C@@H](CC(=O)O)C(=O)N[C@H]1CCC(=O)NCCCC[C@@H](C(=O)N[C@@H](CCC(=O)O)C(=O)N[C@@H](Cc2ccccc2)C(=O)N[C@H](C(=O)N[C@@H](CS)C(=O)N[C@@H](Cc2c[nH]c3ccccc23)C(=O)N[C@@H](CC(C)C)C(=O)N[C@@H](CC(C)C)C(=O)N[C@@H](C)C(=O)NCC(N)=O)C(C)C)NC(=O)[C@H](C)NC(=O)[C@H](C)NC(=O)[C@H](CCC(N)=O)NC1=O

Biological target: glucagon receptor (UniProt P47871 26-477, limits assumed)
Sequence (P47871 26-477 limits assumed): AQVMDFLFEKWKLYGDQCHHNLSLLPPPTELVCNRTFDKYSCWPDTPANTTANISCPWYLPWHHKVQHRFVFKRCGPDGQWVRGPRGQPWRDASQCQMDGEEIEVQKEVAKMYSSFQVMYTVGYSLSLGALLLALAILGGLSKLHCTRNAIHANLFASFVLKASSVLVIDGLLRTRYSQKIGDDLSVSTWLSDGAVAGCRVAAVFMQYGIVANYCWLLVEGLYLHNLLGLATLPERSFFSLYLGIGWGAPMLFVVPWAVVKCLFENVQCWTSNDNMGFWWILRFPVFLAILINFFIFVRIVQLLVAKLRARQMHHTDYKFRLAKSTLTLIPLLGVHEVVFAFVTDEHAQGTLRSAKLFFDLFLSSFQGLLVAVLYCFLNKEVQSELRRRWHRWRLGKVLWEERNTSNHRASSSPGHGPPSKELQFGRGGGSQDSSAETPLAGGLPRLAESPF
Assay: cell-based or functional assay

| EC50 | relative activity | Binder |
| --- | --- | --- |
| 0.362 nM | 34.5% | B1 |
| 2.61 nM | 4.79% | B2 |
| 0.199 nM | 51.3% | B3 |

Biological target: T1, GIP receptor
Assay: cell-based or functional assay

| EC50 | relative activity | Binder |
| --- | --- | --- |
| 0.399 nM | 5.01% | B1 |
| 6.24 nM | 0.32% | B2 |
| 0.142 nM | 14.8% | B3 |

Biological target: GLP-1 receptor (UniProt P43220 24-463, limits assumed)
Assay: cell-based or functional assay

| EC50 | relative activity | Binder |
| --- | --- | --- |
| 0.315 nM | 7.94% | B1 |
| 1.72 nM | 1.45% | B2 |
| 0.057 nM | 54.4% | B3 |
